Binding result and Kd data for 4 molecules are collected here from patent US20240374748A1 (University of California, published 2024).

One assay deals with T1, ALPP (human, UniProt P05187 23-506).
T1 construct: Expressed on transfected HEK293 cells; also called placentally expressed ALPP
Put plainly: FACS on live ALPP-transfected HEK293 cells.

For assay [1], the target named is T2, ALPPL2 (human, UniProt P10696 20-503).
T2 construct: Expressed from an ALPPL2 plasmid or cDNA on HEK293 cells, and endogenous on tumor cells; also called placentally expressed ALPPL2; membrane ALPPL2
Put plainly: FACS on live HEK293 cells transfected with ALPPL2 (GFP+ gated), curve fit of normalized MFI; ALPPL2-transfected HEK293 cells. On the procedure:
Cells were incubated with antibody at room temperature for 1h in PBS/0.2% fetal calf serum, washed three times and further incubated with ALEXAFLOU®-647-labeled anti-human secondary antibody. GFP+ cells were gated and analyzed for mean fluorescence intensity (MFI). […] Similar binding results were obtained on ALPP-transfected cells. There is no binding to ALPL-transfected cells.

A further assay concerns the target T3, ALPL (UniProt P05186 18-501, limits assumed).
T3 construct: whole, on cells; Expressed on ALPL-transfected HEK293 cells; also called tissue-nonspecific, liver/bone/kidney alkaline phosphatase
T3 sequence (looked up): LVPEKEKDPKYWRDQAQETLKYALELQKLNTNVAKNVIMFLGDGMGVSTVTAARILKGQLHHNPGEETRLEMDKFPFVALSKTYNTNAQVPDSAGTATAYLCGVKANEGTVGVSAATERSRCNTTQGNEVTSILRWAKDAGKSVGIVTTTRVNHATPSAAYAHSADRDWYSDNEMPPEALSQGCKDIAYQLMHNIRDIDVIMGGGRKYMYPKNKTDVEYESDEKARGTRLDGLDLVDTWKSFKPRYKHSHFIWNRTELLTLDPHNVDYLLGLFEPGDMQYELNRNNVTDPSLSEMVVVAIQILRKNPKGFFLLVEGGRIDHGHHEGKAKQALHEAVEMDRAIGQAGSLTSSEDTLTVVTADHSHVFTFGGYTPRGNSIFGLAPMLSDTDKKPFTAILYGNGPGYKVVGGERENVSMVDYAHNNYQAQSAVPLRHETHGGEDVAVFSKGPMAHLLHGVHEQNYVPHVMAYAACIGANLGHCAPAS
Put plainly: FACS on live transfected HEK293 cells, IgG1.

In assay [2] the target is T2, ALPPL2. Nature of the assay: FACS on live HEK293 cells transfected with ALPPL2 (GFP+ gated), curve fit of normalized MFI. On the procedure: Cells were incubated with antibody at room temperature for 1h in PBS/0.2% fetal calf serum, washed three times and further incubated with ALEXAFLOU®-647-labeled anti-human secondary antibody. GFP+ cells were gated and analyzed for mean fluorescence intensity (MFI). […] Similar binding results were obtained on ALPP-transfected cells. There is no binding to either ALPL or ALPI-transfected cells.

A further assay addresses T4, ALPI (UniProt P09923 20-503, limits assumed).
T4 construct: whole, on cells; Expressed on ALPI-transfected HEK293 cells; also called intestinal alkaline phosphatase
T4 sequence (looked up): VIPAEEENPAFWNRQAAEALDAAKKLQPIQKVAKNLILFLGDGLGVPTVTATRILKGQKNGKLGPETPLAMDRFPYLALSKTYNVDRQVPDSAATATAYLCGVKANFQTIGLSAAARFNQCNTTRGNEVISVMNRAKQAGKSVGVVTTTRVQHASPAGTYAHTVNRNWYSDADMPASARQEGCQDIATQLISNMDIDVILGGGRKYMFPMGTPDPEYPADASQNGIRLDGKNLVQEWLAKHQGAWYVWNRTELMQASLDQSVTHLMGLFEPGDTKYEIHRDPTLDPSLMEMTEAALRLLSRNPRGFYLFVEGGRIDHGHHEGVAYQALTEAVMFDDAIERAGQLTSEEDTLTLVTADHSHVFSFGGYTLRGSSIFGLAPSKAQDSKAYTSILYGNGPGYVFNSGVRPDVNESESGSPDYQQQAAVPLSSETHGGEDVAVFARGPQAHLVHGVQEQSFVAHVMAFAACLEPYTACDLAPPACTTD
Put plainly: FACS on live transfected HEK293 cells, IgG1.

The target in assay [3] is T2, ALPPL2. Nature of the assay: apparent affinity on tumor cells, IgG1; method and cell line not stated; tumor cells, IgG1 form.

T1 sequence (P05187 23-506 limits assumed): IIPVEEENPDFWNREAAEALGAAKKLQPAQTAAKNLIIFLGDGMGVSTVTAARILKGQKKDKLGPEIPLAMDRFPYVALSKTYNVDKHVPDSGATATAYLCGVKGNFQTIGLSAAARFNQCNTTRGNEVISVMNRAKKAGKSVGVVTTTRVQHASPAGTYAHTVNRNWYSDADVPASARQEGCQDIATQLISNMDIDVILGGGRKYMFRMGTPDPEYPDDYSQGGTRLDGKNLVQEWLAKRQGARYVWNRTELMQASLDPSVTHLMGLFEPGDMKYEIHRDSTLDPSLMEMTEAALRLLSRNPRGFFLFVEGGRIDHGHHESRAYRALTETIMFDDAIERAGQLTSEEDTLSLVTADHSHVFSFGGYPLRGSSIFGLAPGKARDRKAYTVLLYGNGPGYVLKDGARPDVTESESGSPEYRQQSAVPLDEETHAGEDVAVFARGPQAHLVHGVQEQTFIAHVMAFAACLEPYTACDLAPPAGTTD
T2 sequence (P10696 20-503 limits assumed): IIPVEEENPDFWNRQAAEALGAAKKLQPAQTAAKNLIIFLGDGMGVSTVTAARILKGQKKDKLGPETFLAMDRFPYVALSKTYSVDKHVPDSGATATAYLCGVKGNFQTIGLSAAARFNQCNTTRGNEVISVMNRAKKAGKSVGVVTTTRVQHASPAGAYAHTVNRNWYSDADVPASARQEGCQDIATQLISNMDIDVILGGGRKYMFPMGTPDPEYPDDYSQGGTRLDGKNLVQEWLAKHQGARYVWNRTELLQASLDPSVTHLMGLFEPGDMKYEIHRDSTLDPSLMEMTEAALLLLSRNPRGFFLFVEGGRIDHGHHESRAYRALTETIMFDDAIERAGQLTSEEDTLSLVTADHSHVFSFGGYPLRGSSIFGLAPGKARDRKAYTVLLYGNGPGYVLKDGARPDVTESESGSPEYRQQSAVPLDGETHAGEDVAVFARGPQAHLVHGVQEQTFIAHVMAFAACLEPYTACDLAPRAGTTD

B1: M25ADLF IgG1 (antibody, V domains shown)
VH: QVQLQQSGGGLVKPGGSLRLSCAASGFTFSSYDMHWVRQAPGKGLEWVAVISYDGSNKYYADSVKGRFTISRDNSKNTLYLQMDSLRAEDTAVYFCAKEGDSSRWSYDLWGRGTLVTVSS
VL: QSALTQPASVSGSPGQSITISCTGTSSDVGGYNYVSWYQQHPGKAPKVMIYDVTNRPSGVSNRFSGSKSGNTASLTISGLQAEDEADYYCSSYTSTSTFVVFGGGTKLTVLG
notes: Tested as human IgG1; Residue limits are from CLM-00120
Turning to B1, the figures for the binding result with ALPP and with ALPL were “binds” and “no binding”, respectively. Also, the Kd with ALPPL2 [1] was 0.017 nM.

B2: M25FYIA IgG1 (antibody, V domains shown)
VH: QVQLQQSGGGLVKPGGSLRLSCAASGFTFSSYAMHWVRQAPGKGLEWVAVISYDGSNKYYADSVKGRFTISRDNSKNTLYLQMDSLRAEDTAVYYCAKEGDSSRWSYDLWGRGTLVTVSS
VL: QSALTQPASVSGSPGQSITISCTGTSSDVGGYNYVSWYQQHPGKAPKVMIYDVTNRPSGVSNRFSGSKSGNTASLTISGLQAEDEADYYCSSYTIASTLVVFGGGTKLTVL
notes: Tested as human IgG1
Take B2: the binding result with ALPP was “binds”; in the assay with ALPL it was “no binding”. This molecule returned a Kd in the assay with ALPPL2 [1] of 0.0204 nM.

B3: M25 IgG1 (antibody, V domains shown)
VH: QVQLQQSGGGLVKPGGSLRLSCAASGFTFSSYAMHWVRQAPGKGLEWVAVISYDGSNKYYADSVKGRFTISRDNSKNTLYLQMDSLRAEDTAVYFCAKEGDSSRWSYDLWGRGTLVTVSS
VL: QSALTQPASVSGSPGQSITISCTGTSSDVGGYNYVSWYQQHPGKAPKVMIYDVTNRPSGVSNRFSGSKSGNTASLTISGLQAEDEADYYCSSYTSTSTLVVFGGGTKLTVL
notes: also called our M25 antibody; our anti-ALPPL2 antibody M25
On to B3, for which the binding result with ALPP was “binds”; in the assay with ALPI, “no binding”; with ALPL, “no binding”. The Kd with ALPPL2 [2] worked out at 0.506 nM.

B4: M25AD IgG1 (antibody, V domains shown)
VH: QVQLQQSGGGLVKPGGSLRLSCAASGFTFSSYDMHWVRQAPGKGLEWVAVISYDGSNKYYADSVKGRFTISRDNSKNTLYLQMDSLRAEDTAVYFCAKEGDSSRWSYDLWGRGTLVTVSS
VL: QSALTQPASVSGSPGQSITISCTGTSSDVGGYNYVSWYQQHPGKAPKVMIYDVTNRPSGVSNRFSGSKSGNTASLTISGLQAEDEADYYCSSYTSTSTLVVFGGGTKLTVL
notes: Tested in its IgG1 form; also called a variant of M25
Consider B4, for which, in the assay with ALPPL2 [3], the Kd amounted to 0.028 nM.
